Measurements published in article PMC10844826 (iScience, 2024).
Blank lines part the entries; values can stand above or below the molecule they belong to.

Legend:
[1] = target: GST-tagged Arabidopsis thaliana Rpn10 vWA domain (Arabidopsis thaliana) (UniProt P55034); assay: SPR
[2] = target: T1, GST-tagged Arabidopsis thaliana Rpn10 vWA domain (Arabidopsis thaliana, UniProt P55034 2-193); assay: SPR
T1 sequence: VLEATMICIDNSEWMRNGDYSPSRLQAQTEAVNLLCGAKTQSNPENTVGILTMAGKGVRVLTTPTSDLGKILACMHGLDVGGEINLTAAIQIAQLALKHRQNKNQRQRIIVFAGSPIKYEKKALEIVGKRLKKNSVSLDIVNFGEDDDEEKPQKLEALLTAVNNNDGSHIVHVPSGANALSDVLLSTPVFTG

[3] = target: T2, AtRpn10 vWA domain, GST removed, as in the purified complexes (Arabidopsis thaliana, UniProt P55034 2-193); assay: SEC-MALS
T2 sequence: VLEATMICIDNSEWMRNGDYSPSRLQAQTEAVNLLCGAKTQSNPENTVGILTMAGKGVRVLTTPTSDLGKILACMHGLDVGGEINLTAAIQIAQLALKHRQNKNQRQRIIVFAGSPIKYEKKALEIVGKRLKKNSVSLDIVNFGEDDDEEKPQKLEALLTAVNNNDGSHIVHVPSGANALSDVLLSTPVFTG

Molecule: onion yellows phytoplasma SAP05 (natural protein)
Kd [1]: 398 nM

Kd [2]: 400 nM
B1: Aster Yellows witches'-broom phytoplasma SAP05 (33-135) (natural protein, UniProt Q2NK94 33-135, looked up)
chain: APNEEFVGDMRIVNVNLSNIDILKKHETFKKYFDFTLTGPRYNGNIAEFAMIWKIKNPPLNLLGVFFDDGTRDDEDDKYILEELKQIGNGAKNMYIFWQYEQK

stoichiometry N [3]: 1
B2: AYWB_SAP05 (33-135), tag removed, as in the purified complex (natural protein, UniProt Q2NK94 33-135, looked up)
chain: APNEEFVGDMRIVNVNLSNIDILKKHETFKKYFDFTLTGPRYNGNIAEFAMIWKIKNPPLNLLGVFFDDGTRDDEDDKYILEELKQIGNGAKNMYIFWQYEQK
